The target in series [1] is T1, von Willebrand factor A1 domain (Homo sapiens, UniProt P04275 SEQ:13-246). The series can be described thus: filter; DPBS, 0.1 mg/mL BSA, 24 C. The conditions noted are these: label: 5'-32P. As to the method:
Based on this initial screen, KDs were determined for 12 of the best vWF dependent binding sequences using the dot blot assay and are reported in column 5 of Table 4 below.

Series [2] deals with T1, von Willebrand factor A1 domain. Kind of series: filter; DPBS, 0.1 mg/mL BSA, RT. The conditions noted are these: label: 5'-32P. The protocol: Based on this initial screen, KD's were determined for 16 of the best vWF dependent binding sequences using the dot blot assay. […] A 6 point protein titration of human vWF A1 domain (SEQ ID NO 5) was used in the dot blot assay (333 nM, 100 nM, 33 nM, 10 nM, 3 nM, 0 nM) in 1× DPBS plus 0.1 mg/mL BSA at room temperature for 30 minutes. KD values were calculated by fitting the equation y=(max/(1+K/protein))+yint using KaleidaGraph (KaleidaGraph v. 3.51, Synergy Software).

The target in series [3] is von Willebrand factor full length (Homo sapiens, UniProt P04275 SEQ:764-2813). Kind of series: filter; 20 nM protein. The conditions noted are these: tags: Calbiochem 681300. The protocol: (§1) When a significant positive ratio of binding of DNA in the presence of human or rabbit vWF A1 domain versus in the absence of protein was seen, the pools were cloned using the TOPO TA cloning kit (Invitrogen Cat.# 45-0641, Carlsbad, Calif.) according to the manufacturer's instructions. […] All unique clones were assayed twice in a 3-point dot blot screen (no protein target control, 20 nM full length human vWF (Calbiochem Cat.# 681300, La Jolla, Calif.), or 20 nM rabbit vWF A1 domain. The data is presented in the third and fourth columns of Table 17 below as the ratio of the fraction of the aptamer bound to the nitrocellulose in the presence of the target protein to the fraction of aptamer bound in the absence of the target protein.

Series [4] concerns the target T2, von Willebrand factor A1 domain (rabbit) (Oryctolagus cuniculus).
T2 chain: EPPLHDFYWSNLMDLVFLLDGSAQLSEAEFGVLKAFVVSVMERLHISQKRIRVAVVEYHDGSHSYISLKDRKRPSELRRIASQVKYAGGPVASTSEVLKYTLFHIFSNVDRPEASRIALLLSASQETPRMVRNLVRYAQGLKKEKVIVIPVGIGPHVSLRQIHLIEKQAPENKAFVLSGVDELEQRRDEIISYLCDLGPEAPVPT
Kind of series: filter; 20 nM protein. The settings on record: tags: 6xHis. The protocol: as §1

B1: AMX201.C8 (ARC840) (ssRNA)
RNA: GGAGCGCACUCAGCCACCCUCGCAAGCAUUUUAAGAAUGACUUGUGCCGCUGGCUGUUUUCGACCUCUCUGCUAGC
modifications: 2'-F pyrimidines
In general, Kd refers to the free concentration of one partner at which half of the binding sites on the other are occupied at equilibrium, for simple one-to-one binding. B1: in series [1], the Kd was 0.2 nM.

B2: AMX205.F9 (mixed)
DNA: GGAGCGCACTCAGCCACGGAGCGTCGGTGATGGATTAGCGCGGCTCCGTGGTACGCCTTTCGACCTCTCTGCTAGC
modifications: 2'-OH purines, deoxy pyrimidines
As to B2, the Kd in series [2] turned out to be 145 nM.

B3: AMX206.E7 (mixed)
DNA: GGAGCGCACTCAGCCACGGAGCGTCGGTGATGGATTAGCGCGGCTCCGTGGTACACCTTTCGACCTCTCTGCTAGC
modifications: 2'-OH purines, deoxy pyrimidines
In the case of B3, the equilibrium dissociation constant (Kd) in series [2] worked out at 151 nM.

B4: AMX206.D8 (mixed)
DNA: GGAGCGCACTCAGCCACGACGGTGATGGATTAGCGCGGTGGATCTTAACGTGCGAGTTTCGACCTCTCTGCTAGC
modifications: 2'-OH purines, deoxy pyrimidines
B4: the Kd in series [2] stood at 370 nM.

B5: AMX198.E11 (ssRNA)
RNA: GGAGCGCACUCAGCCACGGUAACAUUGUUUCCGGCGAUUCUUUGAACGCCGUCGUGGUUUCGACCUCUCUGCUAGC
modifications: 2'-F pyrimidines
In turn, B5 yielded a Kd in series [1] of 1060 nM.

B6: AMX198.E5 (ssRNA)
RNA: GGAGCGCACUCAGCCACUUCGACUUUCAUGUCUGAAGUCCCUGCAGUGCGAGAGACGUUUCGACCUCUCUGCUAGC
modifications: 2'-F pyrimidines
For the molecule B6, the Kd in series [1] was 172 nM.

B7: AMX238.F5 (ssDNA)
DNA: CTACCTACGATCTGACTAGCGGAATGAGAAGCTGGTGGATTGCTCAGGTCTGCTGGCTGCTTACTCTCATGTAGTTCC
B7: the binding signal in series [3] was 1.05 ratio to no protein; in series [4], 4.4 ratio to no protein.

B8: AMX205.F7 (ARC841) (mixed)
DNA: GGAGCGCACTCAGCCACACGACATTGGCGGGTTGTAATTACCACGCATGGCTGTTTGTTTCGACCTCTCTGCTAGC
modifications: 2'-OH purines, deoxy pyrimidines
In the case of B8, in series [2], the Kd was determined as 1.5 nM.

B9: AMX198.C10 (ssRNA)
RNA: GGAGCGCACUCAGCCACUGGUCCUUAGCUAGUUGUACUAGCGACGCGUUCAGGUGGUUUCGACCUCUCUGCUAGC
modifications: 2'-F pyrimidines
For the molecule B9, binding in series [1] was characterised by a dissociation constant (Kd) of 555 nM.

B10: AMX236.C1 (ssDNA)
DNA: CTACCTACGATCTGACTAGCGGAATGAGAATGTTGGTGGATTGCTCAGGTCTGCTGGCTGCTTACTCTCATGTAGTTCC
In the case of B10, the binding signal in series [3] is 1.03 ratio to no protein; in series [4] it was 3.28 ratio to no protein.

B11: AMX236.C6 (ssDNA)
DNA: CTACCTACGATCTGACTAGCGGAATGAGAGTGCTGGTGGATTGCTCAGGTCTGCTGGCTGCTTACTCTCATGTAGTTCC
For the molecule B11, the values for the binding signal in series [3] and in series [4] were 1.06 ratio to no protein and 5.77 ratio to no protein, respectively.

B12: AMX237.E10 (ssDNA)
DNA: CTACCTACGATCTGACTAGCGGAATGAGAATGCTGGTGGATTGCTCAGGTCTGCTGGCTGCTTACTCTCATGTAGTTCC
In the case of B12, in series [4], the binding signal was 6.04 ratio to no protein.

B13: AMX236.E2 (ssDNA)
DNA: CTACCTACGATCTGACTAGCGGAATGAGTATGCTGATGGATTGCTCAGGTCTGCTGGCTGCTTACTCTCATGTAGTTCC
In the case of B13, the binding signal is 0.93 ratio to no protein in series [3] and 3.59 ratio to no protein in series [4].

B14: AMX238.A11 (ssDNA)
DNA: CTACCTACGATCTGACTAGCGGAATGAGAGTGTTGGTGGATTGCTCAGGTCTGCTGGCTGCTTACTCTCATGTAGTTCC
Regarding B14, the binding signal in series [3] is 0.85 ratio to no protein; in series [4], 4.54 ratio to no protein.

B15: AMX238.A6 (ssDNA)
DNA: CTACCTACGATCTGACTAGCGGAATGAGAATGCAGATGGATTGCTCAGGTCTGCTGGCTGCTTACTCTCATGTAGTTCC
As to B15, the binding signal in series [3] was 0.92 ratio to no protein; in series [4], 3.47 ratio to no protein.

B16: AMX237.C1 (ssDNA)
DNA: CTACCTACGATCTGACTAGCGGAATGAGGATGCTGGTGGATTGCTCAGGTCTGCTGGCTGCTTACTCTCATGTAGTTCC
On to B16, for which the binding signal in series [3] is 0.76 ratio to no protein; in series [4], 3.47 ratio to no protein.

B17: AMX238.F6 (ssDNA)
DNA: CTACCTACGATCTGACTAGCGGAATGAGTATGCTGGTGGATTGCTCAGGTCTGCTGGCTGCTTACTCTCATGTAGTTCC
For B17, the binding signal in series [4] is 5.36 ratio to no protein.

B18: AMX237.B12 (ssDNA)
DNA: CTACCTACGATCTGACTAGCGGAATGAGAATGCAGGTGGATTGCTCAGGTCTGCTGGCTGCTTACTCTCATGTAGTTCC
For the molecule B18, the binding signal in series [4] is 4.67 ratio to no protein.

B19: AMX205.H10 (mixed)
DNA: GGAGCGCACTCAGCCACTGTTGCCGACGGTGATGTATTAACGCGGGCAACGTTGGTGTTTCGACCTCTCTGCTAGC
modifications: 2'-OH purines, deoxy pyrimidines
As for B19, the Kd in series [2] was 397 nM.

B20: AMX198.G1 (ssRNA)
RNA: GGAGCGCACUCAGCCACAACACUAAUGGGGAAAGUUCAAGGAUUCUUGACCGGUGCGUUUCGACCUCUCUGCUAGC
modifications: 2'-F pyrimidines
On to B20, for which the Kd in series [1] amounted to 45 nM.

B21: AMX201.B1 (ssRNA)
RNA: GGAGCGCACUCAGCCACAGAGCCCUGAGUGUAUGAUCGCCUAGAUCUAUCGAUGCUUUUUCGACCUCUCUGCUAGC
modifications: 2'-F pyrimidines
The molecule B21 came in with a Kd in series [1] of 19 nM.

B22: AMX201.G1 (ssRNA)
RNA: GGAGCGCACUCAGCCACGCUCGGUGGGGAAAUUUUAGCCUAAUUGGCUACUUGUGCGUUUCGACCUCUCUGCUAGC
modifications: 2'-F pyrimidines
Take B22: the affinity in series [1], expressed as Kd, was 190 nM.

B23: AMX206.A10 (mixed)
DNA: GGAGCGCACTCAGCCACGGCATGACGGTGATGAATTAGCGCGGTGTCGGTGGTGTCATTTCGACCTCTCTGCTAGC
modifications: 2'-OH purines, deoxy pyrimidines
On to B23, for which the Kd in series [2] worked out at 111 nM.

B24: AMX206.D7 (mixed)
DNA: GGAGCGCACTCAGCCACGGCACGACGGTGATGAATTAGCGCGGTGTCGGTGGTGTTATTTCGACCTCTCTGCTAGC
modifications: 2'-OH purines, deoxy pyrimidines
In the case of B24, the dissociation constant (Kd) in series [2] is 187 nM.

B25: AMX201.H3 (ssRNA)
RNA: GGAGCGCACUCAGCCACUAACGGUUGAUCUCAGGACUAAAUAGUCAACAAGGAUGCGUUUCGACCUCUCUGCUAGC
modifications: 2'-F pyrimidines
In turn, B25 returned a Kd in series [1] of 90 nM.

B26: AMX201.G9 (ssRNA)
RNA: GGAGCGCACUCAGCCACUAACGGCUGAUCUCAGGACUAAAUAGUCAACAAGGAUGCGUUUCGACCUCUCUGCUAGC
modifications: 2'-F pyrimidines
B26 came in with a Kd in series [1] of 182 nM.

B27: AMX203.G9 (ARC842) (mixed)
DNA: GGAGCGCACTCAGCCACGGGGTGGGTAGACGGCGGGTATGTGGCTGGTGTCGAAGGGTTTCGACCTCTCTGCTAGC
modifications: 2'-OH purines, deoxy pyrimidines
For B27, in series [2], the Kd turned out to be 1.3 nM.

B28: AMX203.A1 (mixed)
DNA: GGAGCGCACTCAGCCACAGTTCTGTCGGTGATGAATTAGCGCGGGAGCTGTGGGACGTTTCGACCTCTCTGCTAGC
modifications: 2'-OH purines, deoxy pyrimidines
With B28, in series [2], the Kd stood at 1150 nM.

B29: AMX205.H9 (mixed)
DNA: GGAGCGCACTCAGCCACGACGGTGATGGATTAGCGCGGTGGAGAAGATGCGCTGTTGTTTCGACCTCTCTGCTAGC
modifications: 2'-OH purines, deoxy pyrimidines
For B29, in series [2], the Kd was 178 nM.

B30: AMX201.H1 (ssRNA)
RNA: GGAGCGCACUCAGCCACUUUACGGUGAAAGUCUCUCGGGGUUCCGAGUUACGGUGCGUUUCGACCUCUCUGCUAGC
modifications: 2'-F pyrimidines
B30: the affinity in series [1], expressed as Kd, was 189 nM.

B31: AMX198.C6 (ssRNA)
RNA: GGAGCGCACUCAGCCACGGUGGUCAGUCAGUGAUAUGAUUAAGUUCAGCUGUGGCUGUUUCGACCUCUCUGCUAGC
modifications: 2'-F pyrimidines
B31 had a Kd in series [1] of 249 nM.

B32: AMX198.A10 (ssRNA)
RNA: GGAGCGCACUCAGCCACCAGUUAUGCUGGCUUUGGUCUUUGACUGUCUGAGUGUUCGUUUCGACCUCUCUGCUAGC
modifications: 2'-F pyrimidines
The molecule B32 displayed a Kd in series [1] of 1860 nM.

The values are drawn from patent publication US20060264369, “Aptamers to von Willebrand Factor and their use as thrombotic disease therapeutics” (published 2006).
